In PMC9910466 (Proceedings of the National Academy of Sciences of the …, 2022):

T1: Npl4 (S. cerevisiae) (S. cerevisiae, UniProt P33755 1-580)
T1 construct: Npl4, S. cerevisiae, codon-optimized gene; source: E. coli BL21-CodonPlus (DE3)-RIL, purified with Ufd1 (Ni-NTA, TEV protease, SEC); not shown: His tag (from the Ni-NTA purification)
T1 sequence: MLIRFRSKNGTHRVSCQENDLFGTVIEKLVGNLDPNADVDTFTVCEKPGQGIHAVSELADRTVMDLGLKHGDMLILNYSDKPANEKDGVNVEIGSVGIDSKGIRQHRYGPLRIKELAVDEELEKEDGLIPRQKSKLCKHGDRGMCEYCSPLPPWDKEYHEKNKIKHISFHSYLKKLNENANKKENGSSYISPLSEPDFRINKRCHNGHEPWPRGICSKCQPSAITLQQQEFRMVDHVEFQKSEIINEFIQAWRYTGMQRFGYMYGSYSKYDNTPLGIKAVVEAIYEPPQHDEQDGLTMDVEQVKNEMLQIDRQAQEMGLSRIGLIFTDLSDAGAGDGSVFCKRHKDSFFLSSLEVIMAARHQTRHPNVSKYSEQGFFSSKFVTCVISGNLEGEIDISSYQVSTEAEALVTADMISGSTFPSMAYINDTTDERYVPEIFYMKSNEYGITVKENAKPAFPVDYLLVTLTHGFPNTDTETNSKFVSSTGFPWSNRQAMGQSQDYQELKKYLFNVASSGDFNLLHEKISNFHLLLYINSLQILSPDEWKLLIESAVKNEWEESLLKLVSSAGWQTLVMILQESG


How the values were obtained:
[1] = molecular target: Ufd1^ΔSIM/Npl4 dimer, biotinylated (S. cerevisiae) (UniProt P53044); experiment: BLI; biotinylated Ufd1/Npl4 dimer (WT Ufd1 or Ufd1^ΔSIM) immobilised on streptavidin biosensors, serial dilution of substrate; 30 °C; PBS, 0.02% Tween-20, 0.1% BSA, 0.1 mM TCEP; 2:1 heterogeneous ligand fit
Npl4 (S. cerevisiae) = molecular target: T1, Npl4 (S. cerevisiae); experiment: cryo-EM structure; 2 μM Ufd1/Npl4, 2 μM Cdc48, 2.5 μM 1S1U^H-mEOS, on ice with 1 mM ATP in 20 mM HEPES pH 8.0, 150 mM NaCl, 0.1 mM TCEP, 5 mM MgCl2; single-particle; settings: both partners purified

| fold binding defect against WT Ufd1/Npl4 [1] [fold] | binding result (Npl4 (S. cerevisiae)) | Molecule |
| --- | --- | --- |
| 100 | – | 1S1U-mEOS substrate without polyubiquitin chain (one SUMO and one ubiquitin fused end to end with the N-terminus of mEOS) (from UniProt Q12306 1-101; P0CG63 1-76) |
| – | binds | Ufd1 (S. cerevisiae) (natural protein, Ufd1, S. cerevisiae, codon-optimized gene; residues 228 to 256 and 281 to 311 resolved in the maps; source: E. coli BL21-CodonPlus (DE3)-RIL, purified with Npl4 (Ni-NTA, TEV protease, SEC); not shown: His tag (from the Ni-NTA purification)) MFSGFSSFGGGNGFVNMPQTFEEFFRCYPIAMMNDRIRKDDANFGGKIFLPPSALSKLSMLNIRYPMLFKLTANETGRVTHGGVLEFIAEEGRVYLPQWMMETLGIQPGSLLQISSTDVPLGQFVKLEPQSVDFLDISDPKAVLENVLRNFSTLTVDDVIEISYNGKTFKIKILEVKPESSSKSICVIETDLVTDFAPPVGYVEPDYKALKAQQDKEKKNSFGKGQVLDPSVLGQGSMSTRIDYAGIANSSRNKLSKFVGQGQNISGKAPKAEPKQDIKDMKITFDGEPAKLDLPEGQLFFGFPMVLPKEDEESAAGSKSSEQNFQGQGISLRKSNKRKTKSDHDSSKSKAPKSPEVIEID |
